Our source for the amyloid nucleation score values is the supplement of paper PMC12042874.

± gives the uncertainty stated by the source.

The series is described as follows: amyloid nucleation score (Sup35N fusion, yeast selection) (log enrichment); library NNK3; higher = more nucleation; inactive = no reads after selection. The gist of the method: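 The nucleation score, computed with DiMSum, is the log enrichment of output over input reads, centred on the mode score of non-aggregating sequences. Sequences with under 100 input reads were dropped. Reads were generated by Illumina sequencing of plasmid inserts from psi-negative yeast with Sup35N fused to peptides of 20 random codons, induced with 100 μM copper sulfate for 24 hours and grown 7 days at 30°C on medium lacking adenine and uracil.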
Take DFGKNSLWSSREDNLKYWFM: the amyloid nucleation score result was “inactive”.
As to LCGDYGV, the amyloid nucleation score result is “inactive”.
Turning to SRYLLADSFFRASAVWDVSE, the amyloid nucleation score entry was “inactive”.
Consider HFILFSSYPFYF, for which the amyloid nucleation score result is “inactive”.
Regarding RHLMYPNRNMMVWSSFSDLG, the amyloid nucleation score entry was “inactive”.
Consider QTDMWIDTWKVQPVWIEDEG, for which the amyloid nucleation score entry is “inactive”.
As for TFSPVGMISLYCYGT, the amyloid nucleation score is -0.065 ± 0.45.
On to GHTRDFKGSFDFPLNFY, for which the amyloid nucleation score result is “inactive”.
On to AGAVVDV, for which the amyloid nucleation score result was “inactive”.
GQSLLFRISLISCV returned an amyloid nucleation score of 0.199 ± 0.23.
Consider VRRHAF, for which the amyloid nucleation score entry is “inactive”.
The value for ILSCPSS was “inactive”.
The value for ALSSNKSCVQYS was “inactive”; that for NIYFLVRDSSRIRHKSVGWQ was 2.17 ± 0.06.
Take HCEFRSQSDTNVVNLCGQGW: the amyloid nucleation score entry was “inactive”.
With YTCNSWILDANNLANEPVSK the entry was “inactive”; with ATRSLINQQCCRNYASKVLN, “inactive”.
Turning to ICYRRPTSSMP, the amyloid nucleation score result was “inactive”.
Turning to IKFIPYYCYPCRLIRLRVKC, the amyloid nucleation score result was “inactive”.
The value for MGNYRALCLLLTWLRFLAIE was -0.015 ± 0.96.
In the case of RAGATTFGVMVYKYDKFRQD, the amyloid nucleation score entry is “inactive”.
Consider KLGKESRSFLMTTRNVDRRF, for which the amyloid nucleation score came out at 1.43 ± 0.11.
On to KFGCSYTNYSITSPDNPSC, for which the amyloid nucleation score result was “inactive”.
As to CQKRETVFIKRD, the amyloid nucleation score entry is “inactive”.
SPGGLGFSVNLHCSTYFRPS came in with an amyloid nucleation score of 1.24 ± 0.14.
YCDLY: the amyloid nucleation score entry is “inactive”.
For GERHMVLSVNLRCVTVNVYW, the amyloid nucleation score result was “inactive”.
On to RERPRD, for which the amyloid nucleation score result was “inactive”.
Turning to NLMGQTSGCQCVNTACLKPC, the amyloid nucleation score result is “inactive”.
As to RMSLRAELVKVNLEAIPNWT, the amyloid nucleation score result is “inactive”.
Take LSILHYSLNCLYHRSYMCIL: the amyloid nucleation score entry is “inactive”.
Turning to CMHGKGHSTFINNKDPVKVR, the amyloid nucleation score result is “inactive”.
For SIEMRLCQDWTQLESLT, the amyloid nucleation score is -0.252 ± 0.66.
The value for SPYTVQ was “inactive”; that for KNPTILAFSLGVRGETNRCV was “inactive”.
PFVSVSVCTSLKGCSR registered an amyloid nucleation score of 1.8 ± 0.1.
The value for TCFLVFTCVVGV was “inactive”; that for QLVLPSFMVTLSCG was “inactive”; that for VVLCLFFLLDIFSTGKVYIK was “inactive”.
The value for VFRLKSVLSGLLQAHRLAGI was “inactive”; that for VFLVQFFFINFLGNSN was 2.45 ± 0.067; that for FCIQSVFCCT was 2.88 ± 0.071.
The value for TGSSTDLSNYNGLGYLLNNS was 0.479 ± 0.2; that for EKDISAAMRMHGR was -0.315 ± 0.9; that for YTDTYSSLKDLPTGINCYNI was “inactive”.
With VECNIEIHNISSFPSTEKNQ, the amyloid nucleation score turned out to be 2.41 ± 0.06.
With SMLGHKIN the entry was “inactive”; with IALGRFTCNGIVVVSF, “inactive”.
FYSECCILMGFFVGQNHSVW returned an amyloid nucleation score of 1.61 ± 0.094.
With PRLRHVICHGRFWNPMIQVG, the amyloid nucleation score is 0.971 ± 0.19.
As for LRRDCFLDRSSLRHPVWEWL, the amyloid nucleation score result was “inactive”.
With GEIANSQVRKWLIEMYSPVV, the amyloid nucleation score result was “inactive”.
Consider IRYVFPFDIAHYFYLTKRYG, for which the amyloid nucleation score entry is “inactive”.
As to RHSQFTVVFCNRGRCAGLAA, the amyloid nucleation score entry is “inactive”.
Regarding RRYGTDRLLMRYSIENFCVL, the amyloid nucleation score result is “inactive”.
Consider MSCRARRTNLF, for which the amyloid nucleation score result is “inactive”.
As for NRTCNDLMTFYSWGSSR, the amyloid nucleation score result is “inactive”.
In the case of YLDRKVCSGNALRYLK, the amyloid nucleation score result is “inactive”.
Consider VLRCTSPIES, for which the amyloid nucleation score result is “inactive”.
As to TRSWCGDMYSHC, the amyloid nucleation score result is “inactive”.
With RDCTMYNTYFIWNIYPG the figure was 3.42 ± 0.07.
Turning to WIKVDTPFEGFVRYAIDSGV, the amyloid nucleation score entry is “inactive”.
On to VYWHVWVALSCFMPANIGVV, for which the amyloid nucleation score result was “inactive”.
Regarding WGRGNAAMYGVFRSGNLLVI, the amyloid nucleation score result was “inactive”.
SGKSFNVTGLPCMAWCRATD: the amyloid nucleation score result is “inactive”.
The value for WTIAVMVSVGKYMTGTAT was “inactive”; that for DHGSIRRMGELHWMQLR was “inactive”.
With INSLFLRERICRVRCPGFAS, the amyloid nucleation score result is “inactive”.
LGESMGRHVKRNKSAPERGM: the amyloid nucleation score entry is “inactive”.
The substance SSERGMLVDNVLSHSWMFCI came in with an amyloid nucleation score of 1.35 ± 0.13.
The value for ALNIPVTRGTTPAWFLILLD was “inactive”; that for YFFCCLR was 2.44 ± 0.059.
As for TSRYIGL, the amyloid nucleation score entry was “inactive”.
The value for AFYVVLTNTVYVGWLQE was “inactive”.
For the substance VDTKFSISYTGKTC, the amyloid nucleation score result was “inactive”.
The value for NYGNPRRMVCSEYGWESLCK was “inactive”; that for CSLQLASDQGFSQRDDCTVH was “inactive”; that for FNVTGFSIIGKFIHDWFFLL was “inactive”.
In turn, QDIELMFSFFDGKAFSSYHL returned an amyloid nucleation score of -0.787 ± 0.98.
With VYNLVDIESEPKVVFNGLFL, the amyloid nucleation score entry was “inactive”.
As to TILWFSSNETFYAGIHRSCP, the amyloid nucleation score entry is “inactive”.
The substance RECWMKPNLNSNTYSEMICE gave an amyloid nucleation score of 0.011 ± 0.81.
Regarding ECHRGDHINDYVRADNRFSL, the amyloid nucleation score entry is “inactive”.
In turn, SVNVHCIREPWVADWTCCRL came in with an amyloid nucleation score of 1.18 ± 0.16.
Regarding FISLVPLLSLYRPWVKK, the amyloid nucleation score was determined as 0.836 ± 0.18.
The value for FLCLMTTKTKCNF was “inactive”; that for VRARFHDGQF was -1.05 ± 2.4; that for YCLRSSTGSEVRQWDDDSFK was “inactive”.
Consider PFSSGQSVEYL, for which the amyloid nucleation score entry was “inactive”.
Take GVHHDCDYCRYLDDDVKLWW: the amyloid nucleation score result was “inactive”.
As to FRYVWFCYCMNVERVENVRL, the amyloid nucleation score result is “inactive”.
As for MKLWFNTARLDMKVSKTVYS, the amyloid nucleation score entry was “inactive”.
For HYHSWFPTYSYSYYV, the amyloid nucleation score came to 2.71 ± 0.08.
For SANYNSNFR, the amyloid nucleation score entry was “inactive”.
As for CDMRP, the amyloid nucleation score entry is “inactive”.
On to CRSAVKMGVPLRILLMY, for which the amyloid nucleation score result is “inactive”.
Regarding RMNNLSGEQKQLCDLSLAVR, the amyloid nucleation score result was “inactive”.
